This is an account of results in patent publication US20210130420A1, “RECOMBINANT BINDING PROTEINS TARGETING HER2 AND SERUM ALBUMIN, AND THEIR USES” (Molecular Partners AG, priority 2016, published 2021).

One data set concerns Foxo3a protein. Kind of data set: Cellular levels of Foxo3a protein in BT474 cells. The data set is classed as cell-based, human. The note with it: compared to an exposure to PBS only. An excerpt: (§1) Protein #21 was expressed and purified as described in Example 1. […] Cells were then subjected to a phospho-proteome mass-spectrometry analysis as described by Britton, D., et al. (Britton, D., Zen, Y., Quaglia, A., Selzer, S., Mitra, VI., Lössner, C., Jung, S., Bohm, G., Schmid, P., Prefot, P., Hoehle, C., Koncarevic, S., Gee, J., Nicholson, R., Ward, M., Castellano, L., Stebbing, J., Zucht, H. D., Sarker, D., Heaton, N., and Pike, I., 2014. PLOS One 9 (3), e90948).
It is known to the practitioner in the art, that Akt1 phosphorylates Foxo3a, resulting in the degradation of Foxo3a and promotion of cell survival. Inhibition of Act phosphorylation leads to stabilization of Foxo3a and thus increase in Foxo3a levels. At increased levels Foxo3a can translocate to the nucleus and induce apoptosis.

In a further data set the test system is GXA3039. Kind of data set: Gastric cancer patient derived tumor xenograft mouse model GXA3039. Particulars: Protein #21 60 mg/kg, antibodies 10 mg/kg, every three days for 6 times. The format is in vivo. As for the experimental part: Further, Protein #21 was expressed and purified as described in Example 1. […] All groups were dosed every three days for 6 times. Briefly, tumor fragments were obtained from xenografts in serial passage in nude mice. After removal from donor mice, tumors were cut into fragments (4-5 mm diameter) for subcutaneous implantation. Mice were randomized into groups when tumors reached a volume of approximately 100-120 mm^3. The day of randomization and treatment initiation is designated as day 0 in each experiment. Tumor growth was monitored by two-dimensional measurement with a caliper on the day of randomization and then twice weekly. Relative volumes of individual tumors (individual RTVs) for Day x were calculated by dividing the individual tumor volume on Day x (Tx) by the individual volume of the same tumor on Day 0 (TO) multiplied by 100%. Tumor inhibition for a particular day (T/C in %) was calculated from the ratio of the median RTV values of test versus control groups multiplied by 100%.
On the technique in general: In xenograft studies the graft and the host belong to different species.

Data set [1] can be described thus: Storage stability in PBS analysed by SDS-PAGE. The format is physicochemical. Particulars: SDS-PAGE after 1 month at 40° C. in glass vials in PBS at 10 mg/ml. As for the experimental part: “Improved storage stability” in the context of the present invention means the reduction of the amounts of a degradation band, preferably the reduction of the amount of degradation products, as detected by a Coomassie-stained SDS-PAGE occurring after storage at 40° C. for 1 month at 10 mg/ml in PBS, by at least 5%, 10%, 15%, 20%, 25%, 30%, 35%, 40%, 45%, 50%, or 50%. Methods to assess storage stability by SDS-PAGE are well known to the person skilled in the art. Examples of designed ankyrin repeat domains and recombinant binding proteins with improved storage stability properties are given in Examples 2 and 3.
Protein #13-His, Protein #14-His and Protein #15-His were prepared as described in Example 1, and samples were concentrated to 10 mg/ml in PBS. Protein #14-His and Protein #15-His where then stored for 1 month at −80° C. or at 40° C. in glass vials, followed by analysis on SDS 15% PAGE. […] These findings illustrate that Protein #14-His has improved storage stability compared to Proteins #13-His and Protein #15-His.
A storage stability improvement is also observed, when testing the storage stability of Protein #21 and Protein #22 (recombinant binding proteins consisting of the amino acid sequences corresponding to SEQ ID NOs: 21 and 22, respectively). Protein #21 and Protein #22 are prepared as described in Example 1, samples are concentrated to 10 mg/ml in PBS and stored for 1 month at −80° C. in or at 40° C. in glass vials, followed by analysis on standard size-exclusion chromatography.

Data set [2] addresses extracellular domains of EGFR (Homo sapiens, UniProt P00533). Kind of data set: Surface plasmon resonance interaction with EGFR. The format is binding. For orientation: In SPR one partner is held on a chip, and binding of the other changes the refractive index at the surface.
The next data set relates to AKT. Nature of the data set: Phospho-proteome mass spectrometry of BT474 cells. The format is cell-based, human. Particulars: 100 nM, 18 hours.
Source text: as §1

The subject of a further data set is mTOR. Kind of data set: Phospho-proteome mass spectrometry of BT474 cells. The data set is classed as cell-based, human. Particulars: 100 nM, 18 hours.
Source text: as §1

In the next data set the test system is RPS6KB1/S6 Kinase. Nature of the data set: Phospho-proteome mass spectrometry of BT474 cells. The format is cell-based, human. Particulars: 100 nM, 18 hours.
Source text: as §1

A further data set relates to RAF. Nature of the data set: Phospho-proteome mass spectrometry of BT474 cells. The format is cell-based, human. Particulars: 100 nM, 18 hours.
Source text: as §1

The test system of a further data set is BT474 cells. Nature of the data set: BT474 cell proliferation, BrdU-labeling. The format is cell-based, human. The note with it: cellular assays of Example 6 and screening. As for the experimental part:
Protein #21-His and Protein #23-His, were expressed and purified as described in Example 1. Effects of the recombinant binding proteins on BT474 cell proliferation were determined by measuring DNA synthesis using BrdU-labeling (BrdU, Cell Proliferation ELISA, Roche). Briefly, 10000 BT474 cells were seeded per well in a 96 well plate in 100 ul complete medium and incubated for 24 hours. Recombinant binding proteins or controls were added for an additional 72 hours. BrdU for cell labeling was added for the last 24 hours. Labeled (proliferating) cells were detected according to the manufactures protocol. The data were analyzed using the GraphPad prism software, plotting log [c] on the x-axis against OD450-602 nm on the y-axis. Data were fitted using a non-linear regression fit (log(antagonist) vs. response—Variable slope (four parameters)) deriving IC50 values.
Protein #21 and Protein #21-His were expressed and purified as described in Example 1. Standard BrdU cell proliferation assays were performed, well-known to the person skilled in the art. Briefly, effects on cell proliferation of Protein #21-His, other compounds, or Protein #21-His in combination with other compounds, were determined by measuring DNA synthesis using BrdU-labeling (BrdU, Cell Proliferation ELISA, Roche). Briefly, 10000 cells were seeded per well in a 96 well plate in 100 μl complete medium and incubated for 24 hours. Protein #21-His and/or compounds were added for an additional 72 hours. BrdU for cell labeling was added for the last 24 hours. Labeled (proliferating) cells were detected according to the manufactures protocol. The data were analyzed using the Graph Pad prism software (log [c] vs. OD450-602 nm plot). Data were fitted using a non-linear regression fit (log(antagonist) vs. response—variable slope (four parameters)).

The test system of data set [3] is SKBR-3, SKOV-3, NCI-N87, ZR-75-30, HCC1419, or MDA-MB175. Kind of data set: Induction of apoptosis in further cell lines. The data set is classed as cell-based.

B1: Protein #21: SEQ ID NO: 21; HER2 binding domains (SEQ ID NOs: 16, 17) flanked by two serum albumin binding domains (SEQ ID NO: 14), SEQ ID NO: 9 linkers (protein)
chain: GSDLGKKLLEAARAGQDDEVRELLKAGADVNAKDYFSHTPLHLAARNGHLKIVEVLLKAGADVNAKDFAGKTPLHLAANEGHLEIVEVLLKAGADVNAQDIFGKTPADIAADAGHEDIAEVLQKAAGSPTPTPTTPTPTPTTPTPTPTGSDLGIKLLFAAAKGQDDEVRELLKAGADVNAKDFQGVTPLHIAAQSGHLEIVEVLLKAGADVNAKDVTGDTPLHLAAQHGHLEIVEVLLKAGADVNAQDERGWTPADLAADWGHEDIAEVLQKAAGSPTPTPTTPTPTPTTPTPTPTGSDLGKKLLEAARAGQDDEVRELLKAGADVNAKDEYGLTPLYLATAHGHLEIVEVLLKAGADVNAVDAIGFTPLHLAAFIGHLEIAEVLLKAGADVNAQDKFGKTPADIAAGAGNEDIAEVLQKAAGSPTPTPTTPTPTPTTPTPTPTGSDLGKKLLEAARAGQDDEVRELLKAGADVNAKDYFSHTPLHLAARNGHLKIVEVLLKAGADVNAKDFAGKTPLHLAANEGHLEIVEVLLKAGADVNAQDIFGKTPADIAADAGHEDIAEVLQKAA
modifications: Protein comprising four designed ankyrin repeat domains
In the case of B1, in the data set with Foxo3a protein, the “increase of cellular levels of Foxo3a protein” value came out at 1.88 fold. Further, the “inhibition of tumor growth, first experiment” value in the data set with GXA3039 (GXA3039, FIG. 4C) is “strong inhibition of tumor growth”. The “inhibition of tumor growth, second experiment” value in the data set with GXA3039 (GXA3039, FIG. 4D) is reported as “strong inhibition of tumor growth”. The “amounts of degradation products compared to Protein #22” value in [1] is reported as “lower amounts of degradation products”. The “interaction with extracellular domains of EGFR” value in data set [2] was “does not interact”. Besides, in the data set with AKT, the “AKT S124 phosphorylation” value is 0.99 fold change to PBS and the “AKT S129 phosphorylation” value is on record as 0.93 fold change to PBS. Moreover, in the data set on mTOR, the “mTOR S2448/S2454 phosphorylation” value is recorded as 0.79 fold change to PBS. In addition, in the data set on RPS6KB1/S6 Kinase, the “RPS6KB1/S6Kinase S441/T444/S447 phosphorylation” value is given as 0.63 fold change to PBS and the “RPS6KB1/S6Kinase T444/S447 phosphorylation” value is 0.92 fold change to PBS. In the data set on RAF, the “RAF S642 phosphorylation” value is given as 0.81 fold change to PBS and the “RAF T631/T638/T640/T641/S642 phosphorylation” value is listed as 0.48 fold change to PBS. Also, in the data set with BT474 cells, the cellular potency entry is “high cellular potency”. Besides, in data set [3], the “potency in inducing apoptosis in further cell lines” value is on record as “high potency in inducing apoptosis”.
